Source: patent US20240058465A1 (SUTRO BIOPHARMA, published 2024)
Substitutions are numbered along the chain they refer to. Where two headings read alike, the source gives them in different places. Each block holds one binder with its values, some of them ahead of it.

Columns and labels:
[1] = target: T1, human ROR1 (hROR1) (human, UniProt Q01973 30-937); test: flow cytometry, HCT116-hROR1 cells; NSB = non-saturating binding
T1 construct: On HCT116-hROR1 transfectants, Mino cells or Ntera-2 cells, as the assay of each row says; also called receptor tyrosine kinase like orphan receptor 1

[2] = target: T1, human ROR1 (hROR1); test: cell-based or functional assay
[3] = target: T2, human ROR1 Frizzled domain (hROR1-Fz) (human, UniProt Q01973 165-305); test: SPR Biacore, IgG on anti-Fc, ROR1-Fz analyte
T2 construct: Acro Biosystems, made in HEK293
How it was run: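 Test antibodies captured on an anti-Fc surface (CM5 chip), then analyte bound for 180 s with 600 s dissociation at 25° C in HBS-EP+ buffer at 50 μL/min. Human ROR1 ECD, Frizzled or Kringle domain used as analyte; regeneration with 10 mM glycine pH 2.0.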

[4] = target: T1, human ROR1 (hROR1); test: flow cytometry, HCT116-hROR1 cells
[5] = target: T3, human ROR1 Frizzled domain (Fz, residues 165-305) with C-terminal HIS6 tag (human, UniProt Q01973 165-305); test: SPR (Biacore T200), IgG captured by anti-human Fc, ROR1 Fz as analyte, 1:1 Langmuir fit
T3 construct: Made in HEK293 cells and purified (Acro Biosystems); also called ROR1 Fz; hROR1-Fz
Experimental: The data was fit with the Biacore™ T200 Evaluation software, using a 1-1 Langmuir binding model. KD (affinity, nM) was determined as a ratio of the kinetic rate constants calculated from the fits of the association and dissociation phases.

[6] = target: T1, human ROR1 (hROR1); test: cell-based or functional assay; remark: listed apart in the source
[7] = target: T4, receptor tyrosine kinase orphan receptor 1 (ROR1) on Ntera-2 cells (human, UniProt Q01973 30-937); test: cell-based or functional assay
[8] = target: T4, receptor tyrosine kinase orphan …; test: cell-based or functional assay; remark: listed apart in the source

B1: SRP2193-A01 (antibody, IgG1, V domains shown)
VH: EVQLVESGGGLVQPGGSLRLSCAASGFNINDHYIHWVRQAPGKGLEWVGAIDPTSGSTVFADSVKGRFTISADTSKNTAYLQMNSLRAEDTAVYYCARSRWFRVLWSYVFDYWGQGTLVTVSS
VL: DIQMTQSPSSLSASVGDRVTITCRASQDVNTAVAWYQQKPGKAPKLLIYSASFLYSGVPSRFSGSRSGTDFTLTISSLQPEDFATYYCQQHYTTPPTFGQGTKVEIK
notes: His/FLAG-tagged IgG1, cell-free
binding result [1]: binds

B2: SRP2193-A10 (antibody, IgG1, V domains shown)
VH: B1 VH with N30G, H32Y, T54K, S57Y, F60Y
VL: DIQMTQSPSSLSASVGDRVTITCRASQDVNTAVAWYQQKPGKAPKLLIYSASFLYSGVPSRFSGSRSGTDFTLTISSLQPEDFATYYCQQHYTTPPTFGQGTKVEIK
notes: His/FLAG-tagged IgG1, cell-free; also called Antibody 95
binding result [1]: binds

B5: SRP2193-E06 (antibody, IgG1, V domains shown)
VH: B1 VH with Q13R, N30D, H32Y, A50V, T54K, S55N, F60Y, F68S, S75P, N77S
VL: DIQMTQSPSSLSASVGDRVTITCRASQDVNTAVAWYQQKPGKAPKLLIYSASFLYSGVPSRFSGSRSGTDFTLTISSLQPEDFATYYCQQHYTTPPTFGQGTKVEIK
notes: His/FLAG-tagged IgG1, cell-free; also called Antibody 73
Mino Nb-PBD, drug-conjugated 2° antibody Cell Killing EC50 [2]: 0.0025 nM | Mino Nb-PBD, drug-conjugated 2° antibody Cell Killing Span [2]: 63% | Kd [3]: 2.23 nM | koff [3]: 0.000246 s⁻¹ | kon [3]: 111000 M⁻¹ s⁻¹ | Bmax (MFI) [4]: 14700 MFI | Kd [4]: 5.82 nM

B13: 1944-A07 HC with hSP34-LC3 light chain (antibody, V domains shown)
VH: EVQLVESGGGLVQPGGSLRLSCAASGFNITGYYIHWVRQAPGKGLEWVGYISPNSGSTYYADSVKGRFTISADTSKNTAYLQMNSLRAEDTAVYYCARDSRRYVRPFDYWGQGTLVTVSS
VL: QTVVTQEPSLTVSPGGTVTLTCGSSTGAVTSGYYPNWFQQKPGQAPRGLIGGTKFLAPGTPARFSGSLLGGKAALTLSGVQPEDEAEYYCALWYSNRWVFGGGTQLTVTG
notes: IgG with an anti-CD3 light chain
Kd [5]: 6.35 nM | koff [5]: 0.00228 s⁻¹ | kon [5]: 360000 M⁻¹ s⁻¹

B14: 1944-A07 HC with hUCHT1-LC3 light chain (antibody, V domains shown)
VH: B13 VH
VL: DIQMTQSPSTLSASVGDRVTITCRASQDIRNYLNWYQQKPGKAPKLLIYYTSRLHSGVPSRFSGSGSGTEYTLTISSLQPDDFATYYCQQGNTLPWTFGGGTKVEIK
notes: as for B13
Kd [5]: 64.1 nM | koff [5]: 0.119 s⁻¹ | kon [5]: 1.85e+06 M⁻¹ s⁻¹

B15: Conjugate 5 (2188-D04-F404-LP8) (antibody, human IgG1, kappa)
heavy: MEVQLVESGGGLVQPGGSLRLSCAASGFNISDYDIHWVRQAPGKGLEWVGGIDPADGSTDYADSVKGRFTISADTSKNTAYLQMNSLRAEDTAVYYCARDYGVYDYWGQGTLVTVSSASTKGPSVFPLAPSSKSTSGGTAALGCLVKDYFPEPVTVSWNSGALTSGVHTFPAVLQSSGLYSLSSVVTVPSSSLGTQTYICNVNHKPSNTKVDKKVEPKSCDKTHTCPPCPAPELLGGPSVFLFPPKPKDTLMISRTPEVTCVVVDVSHEDPEVKFNWYVDGVEVHNAKTKPREEQYNSTYRVVSVLTVLHQDWLNGKEYKCKVSNKALPAPIEKTISKAKGQPREPQVYTLPPSREEMTKNQVSLTCLVKGFYPSDIAVEWESNGQPENNYKTTPPVLDSDGSFLYSKLTVDKSRWQQGNVFSCSVMHEALHNHYTQKSLSLSPGK
light: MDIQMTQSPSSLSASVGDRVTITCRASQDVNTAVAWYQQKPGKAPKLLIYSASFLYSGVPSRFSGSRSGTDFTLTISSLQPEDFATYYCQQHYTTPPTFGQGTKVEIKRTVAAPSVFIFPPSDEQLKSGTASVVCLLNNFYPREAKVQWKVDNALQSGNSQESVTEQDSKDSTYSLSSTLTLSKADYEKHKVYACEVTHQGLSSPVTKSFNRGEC
modifications: pAMF at HC-F404 (the * of the entry), conjugated to LP8 (DBCO-GGG-EDA PNU)
cell killing on ROR1 positive NTERA-2 cells, EC50 [6]: 0.0101 nM | cell killing on ROR1 positive NTERA-2 cells, Span [6]: 83%

B16: Conjugate 37 (D04-F404-LP33) (antibody, human IgG1, kappa)
heavy: B15 heavy
light: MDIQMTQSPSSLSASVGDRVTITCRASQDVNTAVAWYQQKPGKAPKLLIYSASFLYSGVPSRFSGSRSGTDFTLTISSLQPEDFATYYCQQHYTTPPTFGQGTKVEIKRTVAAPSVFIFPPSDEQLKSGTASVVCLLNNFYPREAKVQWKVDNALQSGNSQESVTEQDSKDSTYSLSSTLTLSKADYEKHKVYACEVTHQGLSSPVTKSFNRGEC
modifications: pAMF at F404 (EU), linked to LP33
cell killing EC50, NTERA-2 cells [7]: 0.01 nM | cell killing Span, NTERA-2 cells [7]: 89%

B17: Conjugate 41 (D04-F404-LP24) (antibody, human IgG1, kappa)
heavy: B15 heavy
light: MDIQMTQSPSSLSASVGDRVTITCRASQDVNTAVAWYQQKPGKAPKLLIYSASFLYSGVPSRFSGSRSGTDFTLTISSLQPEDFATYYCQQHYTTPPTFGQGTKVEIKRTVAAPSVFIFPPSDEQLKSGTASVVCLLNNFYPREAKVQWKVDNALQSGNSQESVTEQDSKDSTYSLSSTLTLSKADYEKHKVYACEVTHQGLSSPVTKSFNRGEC
modifications: pAMF at F404 (EU), linked to LP24
cell killing EC50, NTERA-2 cells [7]: > 10 nM | cell killing Span, NTERA-2 cells [7]: < 10%

B18: Conjugate 5 (D04-F404-LP8) (antibody, human IgG1, kappa)
heavy: B15 heavy
light: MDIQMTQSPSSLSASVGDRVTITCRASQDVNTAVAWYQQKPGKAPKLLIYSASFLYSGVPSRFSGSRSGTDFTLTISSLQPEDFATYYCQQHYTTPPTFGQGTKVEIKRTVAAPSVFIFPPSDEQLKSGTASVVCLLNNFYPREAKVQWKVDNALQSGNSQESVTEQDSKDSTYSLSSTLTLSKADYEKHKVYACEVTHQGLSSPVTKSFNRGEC
modifications: pAMF at F404 (EU), linked to LP8
cell killing EC50, NTERA-2 cells [8]: 0.021 nM | cell killing Span, NTERA-2 cells [8]: 85% | cell killing EC50, NTERA-2 cells [7]: 0.013 nM | cell killing Span, NTERA-2 cells [7]: 83%

B19: Conjugate 42 (D04-F404-LP25) (antibody, human IgG1, kappa)
heavy: B15 heavy
light: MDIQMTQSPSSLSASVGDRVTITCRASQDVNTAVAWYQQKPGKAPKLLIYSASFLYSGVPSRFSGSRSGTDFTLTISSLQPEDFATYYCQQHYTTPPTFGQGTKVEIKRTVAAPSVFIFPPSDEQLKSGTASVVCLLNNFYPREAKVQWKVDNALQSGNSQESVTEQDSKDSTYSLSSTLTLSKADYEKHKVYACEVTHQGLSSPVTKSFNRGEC
modifications: pAMF at F404 (EU), linked to LP25
cell killing EC50, NTERA-2 cells [7]: 0.075 nM | cell killing Span, NTERA-2 cells [7]: 58%

B20: Conjugate 45 (D04-F404-LP28) (antibody, human IgG1, kappa)
heavy: B15 heavy
light: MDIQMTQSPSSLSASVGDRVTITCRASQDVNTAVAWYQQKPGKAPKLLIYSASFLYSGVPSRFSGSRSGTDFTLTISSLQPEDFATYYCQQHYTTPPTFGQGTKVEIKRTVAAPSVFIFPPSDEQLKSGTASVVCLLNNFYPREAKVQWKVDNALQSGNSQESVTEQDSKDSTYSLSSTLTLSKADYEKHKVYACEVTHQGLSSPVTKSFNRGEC
modifications: pAMF at F404 (EU), linked to LP28
cell killing EC50, NTERA-2 cells [7]: > 10 nM | cell killing Span, NTERA-2 cells [7]: < 10%

B21: Conjugate 43 (D04-F404-LP26) (antibody, human IgG1, kappa)
heavy: B15 heavy
light: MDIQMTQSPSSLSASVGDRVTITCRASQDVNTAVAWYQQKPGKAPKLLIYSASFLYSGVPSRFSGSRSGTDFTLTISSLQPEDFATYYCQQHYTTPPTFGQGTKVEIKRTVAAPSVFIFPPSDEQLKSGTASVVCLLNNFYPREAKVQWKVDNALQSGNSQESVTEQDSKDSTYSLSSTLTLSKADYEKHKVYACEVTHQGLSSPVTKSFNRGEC
modifications: pAMF at F404 (EU), linked to LP26
cell killing EC50, NTERA-2 cells [7]: > 10 nM | cell killing Span, NTERA-2 cells [7]: < 10%

B22: Conjugate 44 (D04-F404-LP27) (antibody, human IgG1, kappa)
heavy: B15 heavy
light: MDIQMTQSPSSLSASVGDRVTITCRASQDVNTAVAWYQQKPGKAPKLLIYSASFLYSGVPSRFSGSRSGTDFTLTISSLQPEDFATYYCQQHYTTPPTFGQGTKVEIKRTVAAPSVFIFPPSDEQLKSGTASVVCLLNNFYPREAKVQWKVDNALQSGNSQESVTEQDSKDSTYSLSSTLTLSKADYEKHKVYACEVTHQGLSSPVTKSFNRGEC
modifications: pAMF at F404 (EU), linked to LP27
cell killing EC50, NTERA-2 cells [7]: 0.017 nM | cell killing Span, NTERA-2 cells [7]: 80%

B23: Conjugate 1 (2188-D04-Y180/F404-LP1) (antibody, human IgG1, kappa)
heavy: MEVQLVESGGGLVQPGGSLRLSCAASGFNISDYDIHWVRQAPGKGLEWVGGIDPADGSTDYADSVKGRFTISADTSKNTAYLQMNSLRAEDTAVYYCARDYGVYDYWGQGTLVTVSSASTKGPSVFPLAPSSKSTSGGTAALGCLVKDYFPEPVTVSWNSGALTSGVHTFPAVLQSSGLSLSSVVTVPSSSLGTQTYICNVNHKPSNTKVDKKVEPKSCDKTHTCPPCPAPELLGGPSVFLFPPKPKDTLMISRTPEVTCVVVDVSHEDPEVKFNWYVDGVEVHNAKTKPREEQYNSTYRVVSVLTVLHQDWLNGKEYKCKVSNKALPAPIEKTISKAKGQPREPQVYTLPPSREEMTKNQVSLTCLVKGFYPSDIAVEWESNGQPENNYKTTPPVLDSDGSFLYSKLTVDKSRWQQGNVFSCSVMHEALHNHYTQKSLSLSPGK
light: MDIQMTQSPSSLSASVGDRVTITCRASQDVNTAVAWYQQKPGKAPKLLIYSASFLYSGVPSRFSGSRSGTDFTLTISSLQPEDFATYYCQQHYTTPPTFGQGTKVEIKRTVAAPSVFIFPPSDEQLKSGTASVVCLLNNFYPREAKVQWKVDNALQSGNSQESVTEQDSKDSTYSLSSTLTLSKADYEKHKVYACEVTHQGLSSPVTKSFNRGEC
modifications: pAMF at HC-Y180 and HC-F404 (the * of the entry), conjugated to LP1 (DBCO-Valcit-pAB-hemiasterlin)
cell killing on ROR1 positive NTERA-2 cells, EC50 [6]: > 10 nM | cell killing on ROR1 positive NTERA-2 cells, Span [6]: < 20%

B24: Conjugate 6 (2188-D04-Y180/F404-LP10) (antibody, human IgG1, kappa)
heavy: B23 heavy
light: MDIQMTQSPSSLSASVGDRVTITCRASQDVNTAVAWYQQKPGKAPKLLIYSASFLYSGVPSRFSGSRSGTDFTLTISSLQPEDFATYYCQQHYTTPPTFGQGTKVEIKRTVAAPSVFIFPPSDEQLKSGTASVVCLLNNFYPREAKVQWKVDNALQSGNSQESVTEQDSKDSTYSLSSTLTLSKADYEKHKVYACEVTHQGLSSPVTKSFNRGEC
modifications: pAMF at HC-Y180 and HC-F404 (the * of the entry), conjugated to LP10 (DBCO-PEG4-GGFG-aminol-Dxd)
cell killing on ROR1 positive NTERA-2 cells, EC50 [6]: 0.08 nM | cell killing on ROR1 positive NTERA-2 cells, Span [6]: 53%

B25: Conjugate 4 (2188-D04-Y180/F404/K42/E161-LP1) (antibody, human IgG1, kappa)
heavy: B23 heavy
light: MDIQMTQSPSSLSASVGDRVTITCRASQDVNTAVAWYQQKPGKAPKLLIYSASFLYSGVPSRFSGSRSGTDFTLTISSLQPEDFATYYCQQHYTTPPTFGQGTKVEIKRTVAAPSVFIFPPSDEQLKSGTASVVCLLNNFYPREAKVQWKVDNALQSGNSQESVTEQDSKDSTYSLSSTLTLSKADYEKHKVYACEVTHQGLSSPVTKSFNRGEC
modifications: pAMF in place of LC-K42 and LC-E161 (Kabat numbering), conjugated to LP1; pAMF at HC-Y180 and HC-F404 (the * of the entry), conjugated to LP1
cell killing on ROR1 positive NTERA-2 cells, EC50 [6]: 0.022 nM | cell killing on ROR1 positive NTERA-2 cells, Span [6]: 63%

B26: Conjugate 7 (2188-D04-Y180/F404/K42/E161-LP10) (antibody, human IgG1, kappa)
heavy: B23 heavy
light: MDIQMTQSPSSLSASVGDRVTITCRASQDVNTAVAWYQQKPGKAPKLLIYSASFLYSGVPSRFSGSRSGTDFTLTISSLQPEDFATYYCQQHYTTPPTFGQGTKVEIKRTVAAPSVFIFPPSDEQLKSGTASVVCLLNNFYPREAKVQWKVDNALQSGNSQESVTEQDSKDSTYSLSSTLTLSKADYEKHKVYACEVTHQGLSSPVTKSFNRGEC
modifications: pAMF in place of LC-K42 and LC-E161 (Kabat numbering), conjugated to LP10; pAMF at HC-Y180 and HC-F404 (the * of the entry), conjugated to LP10
cell killing on ROR1 positive NTERA-2 cells, EC50 [6]: 0.048 nM | cell killing on ROR1 positive NTERA-2 cells, Span [6]: 94%

B27: Conjugate 2 (2188-D04-Y180/F404/K42-LP1) (antibody, human IgG1, kappa)
heavy: B23 heavy
light: MDIQMTQSPSSLSASVGDRVTITCRASQDVNTAVAWYQQKPGAPKLLIYSASFLYSGVPSRFSGSRSGTDFTLTISSLQPEDFATYYCQQHYTTPPTFGQGTKVEIKRTVAAPSVFIFPPSDEQLKSGTASVVCLLNNFYPREAKVQWKVDNALQSGNSQESVTEQDSKDSTYSLSSTLTLSKADYEKHKVYACEVTHQGLSSPVTKSFNRGEC
modifications: pAMF at LC-K42 (the * of the entry), conjugated to LP1; pAMF at HC-Y180 and HC-F404 (the * of the entry), conjugated to LP1
cell killing on ROR1 positive NTERA-2 cells, EC50 [6]: 0.082 nM | cell killing on ROR1 positive NTERA-2 cells, Span [6]: 49%

The next lines start with the values.

binding result [1]: binds
B3: SRP2193-A08 (antibody, IgG1, V domains shown)
VH: B1 VH with N30I, H32S, T54N, S55A, F60Y, K65R, L81I
VL: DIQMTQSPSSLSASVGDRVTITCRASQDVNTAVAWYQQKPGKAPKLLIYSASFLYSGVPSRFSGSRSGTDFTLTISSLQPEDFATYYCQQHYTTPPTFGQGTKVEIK
notes: His/FLAG-tagged IgG1, cell-free; also called Antibody 112

binding result [1]: binds
B4: SRP2193-A06 (antibody, IgG1, V domains shown)
VH: B1 VH with D31A, H32Y, G49D, T54D, V59H, F60N, V109I
VL: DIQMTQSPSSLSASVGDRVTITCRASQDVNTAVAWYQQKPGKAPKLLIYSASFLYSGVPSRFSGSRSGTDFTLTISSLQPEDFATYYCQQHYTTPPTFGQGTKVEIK
notes: His/FLAG-tagged IgG1, cell-free; also called Antibody 85

binding result [1]: binds
B6: SRP2193-A04 (antibody, IgG1, V domains shown)
VH: B1 VH with N30I, D31S, H32Y, T54N, V59L, F60L, F110Y
VL: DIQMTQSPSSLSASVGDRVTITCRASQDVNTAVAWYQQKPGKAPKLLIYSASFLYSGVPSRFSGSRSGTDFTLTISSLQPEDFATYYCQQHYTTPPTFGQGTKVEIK
notes: as for B1

binding result [1]: binds
B7: SRP2193-A03 (antibody, IgG1, V domains shown)
VH: B1 VH with N30A, D31N, H32Y, Y33H, T54K, F60H, F102S, S107T
VL: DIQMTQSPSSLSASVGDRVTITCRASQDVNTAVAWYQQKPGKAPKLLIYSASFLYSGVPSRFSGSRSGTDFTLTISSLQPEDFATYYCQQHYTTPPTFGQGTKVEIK
notes: as for B1

binding result [1]: binds
B8: SRP2193-A07 (antibody, IgG1, V domains shown)
VH: B1 VH with D31A, H32S, Y33D, E46G, T54N, S55T, S57T, V59N, F60Y
VL: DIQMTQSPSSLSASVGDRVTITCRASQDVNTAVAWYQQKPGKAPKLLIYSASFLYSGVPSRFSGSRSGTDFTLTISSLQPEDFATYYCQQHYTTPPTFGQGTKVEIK
notes: His/FLAG-tagged IgG1, cell-free; also called Antibody 97

binding result [1]: binds
B9: SRP2193-A05 (antibody, IgG1, V domains shown)
VH: B1 VH with N30K, D31G, H32Y, G49S, A50V, T54N, V59I, F110L
VL: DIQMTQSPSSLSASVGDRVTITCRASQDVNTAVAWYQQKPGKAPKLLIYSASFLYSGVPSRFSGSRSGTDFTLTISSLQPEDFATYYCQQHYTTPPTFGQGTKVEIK
notes: His/FLAG-tagged IgG1, cell-free; also called Antibody 116

binding result [1]: binds
B10: SRP2193-A09 (antibody, IgG1, V domains shown)
VH: B1 VH with N30G, D31K, Y33H, A50V, T54K, S55G, F60Y, F102S
VL: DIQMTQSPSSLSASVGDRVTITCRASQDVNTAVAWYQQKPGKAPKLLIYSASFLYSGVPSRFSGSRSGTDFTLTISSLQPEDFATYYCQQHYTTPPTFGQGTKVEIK
notes: His/FLAG-tagged IgG1, cell-free; also called Antibody 94

binding result [1]: binds
B11: SRP2193-A11 (antibody, IgG1, V domains shown)
VH: B1 VH with N30D, D31A, H32Y, T54K, F60Y, I70T
VL: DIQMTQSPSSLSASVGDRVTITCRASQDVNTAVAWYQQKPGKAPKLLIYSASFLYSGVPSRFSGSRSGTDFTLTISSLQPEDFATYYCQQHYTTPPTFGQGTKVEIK
notes: His/FLAG-tagged IgG1, cell-free; also called Antibody 110

binding result [1]: binds
B12: SRP2193-A02 (antibody, IgG1, V domains shown)
VH: B1 VH with N30H, D31A, H32S, T54K, V59Y, F60Y, F102L, V109I
VL: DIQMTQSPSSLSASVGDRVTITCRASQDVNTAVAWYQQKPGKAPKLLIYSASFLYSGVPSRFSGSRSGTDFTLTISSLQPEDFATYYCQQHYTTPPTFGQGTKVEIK
notes: His/FLAG-tagged IgG1, cell-free; also called Antibody 83
